Data on 1 protein can be found in publication PMC10949331, “Labile assembly of a tardigrade protein induces biostasis” (Protein Science : A Publication of the Protein Society, 2024).

This series deals with the molecule itself. Description: cross-linking; 1 mg/mL of each protein with increasing BS3 amine ester crosslinker (0.8-8 mM), 30 min at room temperature; denaturing SDS-PAGE, Coomassie blue.

B1: Cytoplasmic Abundant Heat Soluble protein D (CAHS D), wild type (natural protein, Hypsibius exemplaris, UniProt P0CU50 1-227, looked up)
chain: MSGRNVESHMERNEKVVVNNSGHADVKKQQQQVEHTEFTHTEVKAPLIHPAPPIISTGAAGLAEEIVGQGFTASAARISGGTAEIHLQPSAAMTEEARRDQERYRQEQESIAKQQEREMEKKTEAYRKTAEAEAEKIRKELEKQHARDVEFRKDLIESTIDRQKREVDLEAKMAKRELDREGQLAKEALERSRLATNVEVNFDSAAGHTVSGGTTVSTSDKMEIKRN
notes: CAHS D of the tardigrade Hypsibius exemplaris, 227 residues, UniProt P0CU50; Cloned into pET28b; also called CAHS8_HYPEX; CAHS 94063; source: E. coli BL21 (DE3), purified (heat lysis, cation exchange in 8 M urea, dialysis, lyophilised)
Take B1: the binding result is reported as “binds”.
